We go through 3 molecules from patent US20140148501, “DNA APTAMERS FOR PROMOTING REMYELINATION” (MAYO FOUNDATION FOR MEDICAL EDUCATION AND RESEARCH, published 2014).

The target of data set [1] is T1, Proteolipid protein PLP (12.5 kDa band) (Mus musculus, UniProt P60202 P60202:2-277).
T1 sequence: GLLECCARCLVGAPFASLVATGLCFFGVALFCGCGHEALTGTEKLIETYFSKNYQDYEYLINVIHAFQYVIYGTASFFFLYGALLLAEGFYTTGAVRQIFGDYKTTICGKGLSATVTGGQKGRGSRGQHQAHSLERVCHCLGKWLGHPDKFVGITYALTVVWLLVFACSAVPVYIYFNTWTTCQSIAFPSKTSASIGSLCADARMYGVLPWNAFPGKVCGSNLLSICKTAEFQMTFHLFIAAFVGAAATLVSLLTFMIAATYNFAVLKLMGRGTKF
The data set can be described thus: southwestern blot. To be noted: tags: none; from crude SJL mouse CNS myelin, SDS-PAGE separated and blotted to PVDF; label: 5'-fluorescein. On the procedure: (§1) To promote intramolecular folding, aptamer stock solutions (5 μM) in PBS were heated to 90° C., MgCl₂ was added to a final concentration of 1 mM, and solutions were allowed to cool room temperature. Myelin stock was diluted in PBS and sonicated on ice. Fluorescent folded aptamers were added to different amounts of myelin suspension and incubated at 37° C. for 3 hours. Insoluble material with bound aptamers was recovered by centrifugation for 30 seconds in a microcentrifuge. The pellet was washed with 100 μL PBS and again recovered by centrifugation. After phenol extraction and ethanol precipitation, fluorescent aptamers were quantitated in black plastic 96-well plates using a Typhoon Fluorescent Imaging system (GE Healthcare Biosciences; Piscataway, N.J.). For Southwestern blotting, 15 μg crude myelin protein was separated in each lane of a 10% Bis-Tris SDS polyacrylamide gel in 2-(N-morpholino)ethanesulfonic acid (MES) buffer. After electrophoresis, duplicate lanes were either stained with Coomassie blue dye or transferred to polyvinylidene fluoride (PVDF) membrane by electroblotting. Western blotting was performed by standard methods using antibodies with the indicated specificities. For southwestern blots, membranes were blocked for 30 minutes at 37° C. in tris-buffered saline and TWEEN® 20 (TBST) buffer containing with 1% bovine serum albumin (BSA), 10% non-fat dry milk, 2 mg/mL sonicated and heat-denatured salmon testis DNA, and TWEEN® 20 detergent. Folded fluorescent aptamers (5 μM final concentration) were then added in PBS containing 1 mM MgCl₂ and incubated with PVDF membranes for 14 hours, followed by washing in TBST buffer and then in 0.5× tris/borate/EDTA (TBE) buffer. Fluorescein fluorescence was then detected on membranes using the Typhoon Fluorescent Imaging system. Tryptic peptide mass fingerprinting was performed.
(§2) The specificity of anti-myelin DNA aptamer 3064 and controls 3060 and 3202 was analyzed by assessing the binding of fluorescent aptamers to crude myelin protein suspension using centrifugal sedimentation to recover bound aptamers (FIG. 5A).

In data set [2] the target is T2, Myelin oligodendrocyte glycoprotein MOG (23.8 kDa band) (Mus musculus, UniProt Q61885 Q61885:29-246).
T2 sequence: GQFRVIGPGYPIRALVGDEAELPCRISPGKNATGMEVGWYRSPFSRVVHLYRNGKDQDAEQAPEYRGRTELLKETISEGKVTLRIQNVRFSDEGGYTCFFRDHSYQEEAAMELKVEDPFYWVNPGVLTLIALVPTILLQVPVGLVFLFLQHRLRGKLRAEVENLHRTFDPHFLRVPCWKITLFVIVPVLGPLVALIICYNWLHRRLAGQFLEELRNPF
The experiment in a line: southwestern blot. To be noted: tags: none; from crude SJL mouse CNS myelin, SDS-PAGE separated and blotted to PVDF; label: 5'-fluorescein. How it is done: as §1, §2

Data set [3] addresses T3, Myelin basic protein isoforms containing exon 2-encoded sequence (17 kDa and 21.5 kDa) (Mus musculus, UniProt P04370-4 P04370-4:2-195). The data set can be described thus: southwestern blot. The note with it: tags: none; from crude SJL mouse CNS myelin, SDS-PAGE separated and blotted to PVDF; label: 5'-fluorescein. How it is done:
as §1, §2

For data set [4], the target named is T4, Myelin basic protein 18.5 kDa isoform (Mus musculus, UniProt P04370-5 P04370-5:2-169). The data set can be described thus: southwestern blot. The note with it: tags: none; from crude SJL mouse CNS myelin, SDS-PAGE separated and blotted to PVDF; label: 5'-fluorescein. How it is done: as §1, §2
In data set [5] the target is T3, Myelin basic protein isoforms …. The data set can be described thus: southwestern blot; unique to 3064; 5 uM aptamer, PBS, 1 mM MgCl2, 14 h. To be noted: tags: none; from crude SJL mouse CNS myelin, SDS-PAGE separated and blotted to PVDF; label: 5'-fluorescein; putative intramolecular G4. How it is done: (§3) To promote intramolecular folding, aptamer stock solutions (5 μM) in PBS were heated to 90° C., MgCl₂ was added to a final concentration of 1 mM, and solutions were allowed to cool room temperature. Myelin stock was diluted in PBS and sonicated on ice. Fluorescent folded aptamers were added to different amounts of myelin suspension and incubated at 37° C. for 3 hours. Insoluble material with bound aptamers was recovered by centrifugation for 30 seconds in a microcentrifuge. The pellet was washed with 100 μL PBS and again recovered by centrifugation. After phenol extraction and ethanol precipitation, fluorescent aptamers were quantitated in black plastic 96-well plates using a Typhoon Fluorescent Imaging system (GE Healthcare Biosciences; Piscataway, N.J.). For Southwestern blotting, 15 μg crude myelin protein was separated in each lane of a 10% Bis-Tris SDS polyacrylamide gel in 2-(N-morpholino)ethanesulfonic acid (MES) buffer. […] Fluorescein fluorescence was then detected on membranes using the Typhoon Fluorescent Imaging system. […]
as §2

For data set [6], the target named is T1, Proteolipid protein PLP (12.5 kDa band). The data set can be described thus: southwestern blot; 5 uM aptamer, PBS, 1 mM MgCl2. The note with it: tags: none; from crude SJL mouse CNS myelin, SDS-PAGE separated and blotted to PVDF; label: 5'-fluorescein; putative intramolecular G4. On the procedure:
as §1, §2

Data set [7] concerns the target T2, Myelin oligodendrocyte glycoprotein MOG …. The data set can be described thus: southwestern blot; 5 uM aptamer, PBS, 1 mM MgCl2. To be noted: tags: none; from crude SJL mouse CNS myelin, SDS-PAGE separated and blotted to PVDF; label: 5'-fluorescein; putative intramolecular G4. How it is done: as §1, §2
The target in data set [8] is T4, Myelin basic protein 18.5 kDa isoform. The data set can be described thus: southwestern blot; 5 uM aptamer, PBS, 1 mM MgCl2. The note with it: tags: none; from crude SJL mouse CNS myelin, SDS-PAGE separated and blotted to PVDF; label: 5'-fluorescein; putative intramolecular G4. How it is done: as §1, §2
In data set [9] the target is T3, Myelin basic protein isoforms …. The experiment in a line: southwestern blot; 17 and 21.5 kDa bands bound only by 3064. To be noted: tags: none; from crude SJL mouse CNS myelin, SDS-PAGE separated and blotted to PVDF; label: 5'-fluorescein; putative intramolecular G4. How it is done:
as §3, §2

Data set [10] has as its target T1, Proteolipid protein PLP (12.5 kDa band). The data set can be described thus: southwestern blot; control selected for chelated Ni. The note with it: tags: none; from crude SJL mouse CNS myelin, SDS-PAGE separated and blotted to PVDF; label: 5'-fluorescein; putative intramolecular G4. How it is done: (§4) After electrophoresis, duplicate lanes were either stained with Coomassie blue dye or transferred to polyvinylidene fluoride (PVDF) membrane by electroblotting. Western blotting was performed by standard methods using antibodies with the indicated specificities. For southwestern blots, membranes were blocked for 30 minutes at 37° C. in tris-buffered saline and TWEEN® 20 (TBST) buffer containing with 1% bovine serum albumin (BSA), 10% non-fat dry milk, 2 mg/mL sonicated and heat-denatured salmon testis DNA, and TWEEN® 20 detergent. Folded fluorescent aptamers (5 μM final concentration) were then added in PBS containing 1 mM MgCl₂ and incubated with PVDF membranes for 14 hours, followed by washing in TBST buffer and then in 0.5× tris/borate/EDTA (TBE) buffer. Fluorescein fluorescence was then detected on membranes using the Typhoon Fluorescent Imaging system. Tryptic peptide mass fingerprinting was performed.
(§5) The specificity of anti-myelin DNA aptamer 3064 and controls 3060 and 3202 was analyzed by assessing the binding of fluorescent aptamers to crude myelin protein suspension using centrifugal sedimentation to recover bound aptamers (FIG. 5A). […] To further assess specificity, crude myelin proteins were separated by SDS-polyacrylamide gel electrophoresis and stained with Coomassie dye (myelin; FIG. 5B, left lane), or blotted to polyvinylidene (PVDF) membrane and probed with antibodies against myelin basic protein (MBP), proteolipid protein (PLP), or MOG in western blots (FIG. 5B, lanes 2-4), or probed with fluorescent aptamers 3202, 3060 or 3064 in southwestern blots (FIG. 5B, lanes 5-7). […] In particular, control aptamer 3060 and myelin-specific aptamer 3064 both bound to three myelin proteins with apparent molecular weights of 12.5 kDa, 18.5 kDa, and 23.8 kDa. Based on western analysis and mass spectrometry of tryptic peptides, these proteins were PLP, the 18.5 kDa isoform of MBP, and MOG, respectively.

Data set [11] deals with T2, Myelin oligodendrocyte glycoprotein MOG …. The data set is described as above. To be noted: tags: none; from crude SJL mouse CNS myelin, SDS-PAGE separated and blotted to PVDF; label: 5'-fluorescein; putative intramolecular G4. How it is done: as §4, §5
The target of data set [12] is T4, Myelin basic protein 18.5 kDa isoform. The description is as above. To be noted: tags: none; from crude SJL mouse CNS myelin, SDS-PAGE separated and blotted to PVDF; label: 5'-fluorescein; putative intramolecular G4. On the procedure: as §4, §5

T3 sequence (P04370 other isoform, or with tags, fused parts or gaps): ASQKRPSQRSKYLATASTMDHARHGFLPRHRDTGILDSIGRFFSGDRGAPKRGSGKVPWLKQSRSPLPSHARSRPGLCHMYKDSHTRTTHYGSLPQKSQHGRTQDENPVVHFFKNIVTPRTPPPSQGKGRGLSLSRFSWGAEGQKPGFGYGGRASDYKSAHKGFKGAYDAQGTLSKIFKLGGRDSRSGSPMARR
T4 sequence (P04370 other isoform, or with tags, fused parts or gaps): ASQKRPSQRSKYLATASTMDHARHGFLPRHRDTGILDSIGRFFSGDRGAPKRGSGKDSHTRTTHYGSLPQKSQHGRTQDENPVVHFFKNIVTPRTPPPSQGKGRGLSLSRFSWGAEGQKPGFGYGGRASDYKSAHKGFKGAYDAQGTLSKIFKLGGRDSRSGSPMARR

In the case of TTTTTTTTTTTTTTTTTTTTTTTTTTTTTTTTTTTTTTTT (ssDNA) [3202 (dT40)], the binding result in data set [1], in data set [2], in data set [3] and in data set [4] was “no binding” each time.

As to GGGTCGGCGGGTGGGGTGGGAGGTGGTCTTGTCTCTGGGT (ssDNA) [3064], the binding result in [5], in [6], in data set [7] and in data set [8] was “binds” throughout.

For the molecule AAAGAACAAAAAGGATAAAGGGGGAGACGGGGGGAACATGGGG (ssDNA) [3060], the binding result was “no binding” in [9], “binds” in [10], “binds” in [11] and “binds” in data set [12].
